From IntAct's records for PubMed 31515488

B1: DNA replication complex GINS protein PSF2 (Homo sapiens), Q9Y248 (parent)
chain: MDAAEVEFLAEKELVTIIPNFSLDKIYLIGGDLGPFNPGLPVEVPLWLAINLKQRQKCRLLPPEWMDVEKLEKMRDHERKEETFTPMPSPYYMELTKLLLNHASDNIPKADEIRTLVKDMWDTRIAKLRVSADSFVRQQEAHAKLDNLTLMEINTSGTFLTQALNHMYKLRTNLQPLESTQSQDF
B2: Protein BANP (Homo sapiens), Q8N9N5 (parent)
chain: MMSEHDLADVVQIAVEDLSPDHPVVLENHVVTDEDEPALKRQRLEINCQDPSIKTICLRLDSIEAKLQALEATCKSLEEKLDLVTNKQHSPIQVPMVAGSPLGATQTCNKVRCVVPQTTVILNNDRQNAIVAKMEDPLSNRAPDSLENVISNAVPGRRQNTIVVKVPGQEDSHHEDGESGSEASDSVSSCGQAGSQSIGSNVTLITLNSEEDYPNGTWLGDENNPEMRVRCAIIPSDMLHISTNCRTAEKMALTLLDYLFHREVQAVSNLSGQGKHGKKQLDPLTIYGIRCHLFYKFGITESDWYRIKQSIDSKCRTAWRRKQRGQSLAVKSFSRRTPNSSSYCPSEPMMSTPPPASELPQPQPQPQALHYALANAQQVQIHQIGEDGQVQVGHLHIAQVPQGEQVQITQDSEGNLQIHHVGQDGQLLEATRIPCLLAPSVFKASSGQVLQGAQLIAVASSDPAAAGVDGSPLQGSDIQVQYVQLAPVSDHTAGAQTAEALQPTLQPEMQLEHGAIQIQ
partner: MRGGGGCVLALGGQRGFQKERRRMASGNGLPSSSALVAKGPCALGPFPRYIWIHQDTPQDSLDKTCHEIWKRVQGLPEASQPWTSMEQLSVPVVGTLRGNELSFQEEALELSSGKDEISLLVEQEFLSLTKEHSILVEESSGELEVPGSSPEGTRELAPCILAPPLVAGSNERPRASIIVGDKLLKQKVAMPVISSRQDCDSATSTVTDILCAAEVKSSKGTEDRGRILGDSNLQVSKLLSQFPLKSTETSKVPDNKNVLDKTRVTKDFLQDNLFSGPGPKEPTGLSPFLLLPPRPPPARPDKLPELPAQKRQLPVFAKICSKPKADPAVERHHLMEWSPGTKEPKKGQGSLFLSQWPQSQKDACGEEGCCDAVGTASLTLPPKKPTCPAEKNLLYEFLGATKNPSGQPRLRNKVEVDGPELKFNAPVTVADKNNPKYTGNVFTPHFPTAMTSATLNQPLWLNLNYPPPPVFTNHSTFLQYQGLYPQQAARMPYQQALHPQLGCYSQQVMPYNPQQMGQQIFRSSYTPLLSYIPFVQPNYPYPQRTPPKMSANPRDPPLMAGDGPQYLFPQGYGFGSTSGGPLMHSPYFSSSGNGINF
B3: Leucine rich adaptor protein 1 (Homo sapiens), Q96LR2 (parent)
chain: MEGTVESQTPDLRDVEGKVGRKTPEGLLRGLRGECELGTSGALLLPGASSTGHDLGDKIMALKMELAYLRAIDVKILQQLVTLNEGIEAVRWLLEERGTLTSHCSSLTSSQYSLTGGSPGRSRRGSWDSLPDTSTTDRLDSVSIGSFLDTVAPSELDEQGPPGAPRSEMDWAKVIAGGERARTEVDVAATRLGSLRAVWKPPGERLQGGPPESPEDESAKLGFEAHWFWEQCQDDVTFL
B4: E3 ubiquitin-protein ligase TRIM9 (Homo sapiens), Q9C026-5 (parent)
chain: MEEMEEELKCPVCGSFYREPIILPCSHNLCQACARNILVQTPESESPQSHRAAGSGVSDYDYLDLDKMSLYSEADSGYGSYGGFASAPTTPCQKSPNGVRVFPPAMPPPATHLSPALAPVPRNSCITCPQCHRSLILDDRGLRGFPKNRVLEGVIDRYQQSKAAALKCQLCEKAPKEATVMCEQCDVFYCDPCRLRCHPPRGPLAKHRLVPPAQGRVSRRLSPRKVSTCTDHELENHSMYCVQCKMPVCYQCLEEGKHSSHEVKALGAMWKLHKSQLSQALNGLSDRAKEAKEFLVQLRNMVQQIQENSVEFEACLVAQCDALIDALNRRKAQLLARVNKEHEHKLKVVRDQISHCTVKLRQTTGLMEYCLEVIKENDPSGFLQISDALIRRVHLTEDQWGKGTLTPRMTTDFDLSLDNSPLLQSIHQLDFVQVKASSPVPATPILQLEECCTHNNSATLSWKQPPLSTVPADGYILELDDGNGGQFREVYVGKETMCTVDGLHFNSTYNARVKAFNKTGVSPYSKTLVLQTSEGKALQQYPSERELRGI
B5: Protein SSX3 (Homo sapiens), Q99909 (parent)
chain: MNGDDTFARRPTVGAQIPEKIQKAFDDIAKYFSKEEWEKMKVSEKIVYVYMKRKYEAMTKLGFKAILPSFMRNKRVTDFQGNDFDNDPNRGNQVQRPQMTFGRLQGIFPKIMPKKPAEEGNVSKEVPEASGPQNDGKQLCPPGKPTTSEKINMISGPKRGEHAWTHRLRERKQLVIYEEISDPEEDDE
B6: Calcium-binding and coiled-coil domain-containing protein 2 (Homo sapiens), Q13137 (parent)
chain: MEETIKDPPTSAVLLDHCHFSQVIFNSVEKFYIPGGDVTCHYTFTQHFIPRRKDWIGIFRVGWKTTREYYTFMWVTLPIDLNNKSAKQQEVQFKAYYLPKDDEYYQFCYVDEDGVVRGASIPFQFRPENEEDILVVTTQGEVEEIEQHNKELCKENQELKDSCISLQKQNSDMQAELQKKQEELETLQSINKKLELKVKEQKDYWETELLQLKEQNQKMSSENEKMGIRVDQLQAQLSTQEKEMEKLVQGDQDKTEQLEQLKKENDHLFLSLTEQRKDQKKLEQTVEQMKQNETTAMKKQQELMDENFDLSKRLSENEIICNALQRQKERLEGENDLLKRENSRLLSYMGLDFNSLPYQVPTSDEGGARQNPGLAYGNPYSGIQESSSPSPLSIKKCPICKADDICDHTLEQQQMQPLCFNCPICDKIFPATEKQIFEDHVFCHSL
partner: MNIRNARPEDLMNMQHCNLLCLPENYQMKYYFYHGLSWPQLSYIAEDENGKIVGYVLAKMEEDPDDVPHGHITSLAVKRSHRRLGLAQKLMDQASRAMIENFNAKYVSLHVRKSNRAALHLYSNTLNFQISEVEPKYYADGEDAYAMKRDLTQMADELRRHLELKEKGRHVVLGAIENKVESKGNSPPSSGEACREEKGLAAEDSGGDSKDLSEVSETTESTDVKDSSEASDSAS

Variants of: B1
Details: with sld5_human GINS4, Q9BRT9
Sequence of sld5_human GINS4, Q9BRT9 (Q9BRT9 whole entry): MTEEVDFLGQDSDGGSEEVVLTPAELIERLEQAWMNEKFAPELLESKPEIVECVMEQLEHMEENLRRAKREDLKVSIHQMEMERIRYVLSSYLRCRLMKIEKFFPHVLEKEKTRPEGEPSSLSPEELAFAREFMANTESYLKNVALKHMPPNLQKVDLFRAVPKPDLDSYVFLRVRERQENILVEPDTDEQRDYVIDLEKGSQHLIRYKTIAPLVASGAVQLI

Variant	effect of a mutation on the interaction
L150S	with no effect
I26T	with no effect
T172K	with no effect
D24G	with no effect

Variants of: B2
Details: with ca094_human C1orf94, Q6P1W5

Variant	effect of a mutation on the interaction
P348S	with no effect

Variants of: B3
Details: with tpm3_human TPM3, P06753
Sequence of tpm3_human TPM3, P06753 (P06753 whole entry): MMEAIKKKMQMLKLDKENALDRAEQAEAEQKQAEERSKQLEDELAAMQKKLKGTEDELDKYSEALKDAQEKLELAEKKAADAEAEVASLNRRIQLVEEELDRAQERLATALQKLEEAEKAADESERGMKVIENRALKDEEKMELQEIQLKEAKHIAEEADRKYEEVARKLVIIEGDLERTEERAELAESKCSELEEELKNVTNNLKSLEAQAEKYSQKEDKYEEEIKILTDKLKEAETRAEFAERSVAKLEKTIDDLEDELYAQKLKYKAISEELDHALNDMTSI

Variant	effect of a mutation on the interaction
Q207R	with no effect
M60L	with no effect

Variants of: B4
Details: with fbw1a_human BTRC

Variant	effect of a mutation on the interaction
L277F	with no effect

Variants of: B5
Details: with cep63_human CEP63, Q96MT8
Sequence of cep63_human CEP63, Q96MT8 (Q96MT8 whole entry): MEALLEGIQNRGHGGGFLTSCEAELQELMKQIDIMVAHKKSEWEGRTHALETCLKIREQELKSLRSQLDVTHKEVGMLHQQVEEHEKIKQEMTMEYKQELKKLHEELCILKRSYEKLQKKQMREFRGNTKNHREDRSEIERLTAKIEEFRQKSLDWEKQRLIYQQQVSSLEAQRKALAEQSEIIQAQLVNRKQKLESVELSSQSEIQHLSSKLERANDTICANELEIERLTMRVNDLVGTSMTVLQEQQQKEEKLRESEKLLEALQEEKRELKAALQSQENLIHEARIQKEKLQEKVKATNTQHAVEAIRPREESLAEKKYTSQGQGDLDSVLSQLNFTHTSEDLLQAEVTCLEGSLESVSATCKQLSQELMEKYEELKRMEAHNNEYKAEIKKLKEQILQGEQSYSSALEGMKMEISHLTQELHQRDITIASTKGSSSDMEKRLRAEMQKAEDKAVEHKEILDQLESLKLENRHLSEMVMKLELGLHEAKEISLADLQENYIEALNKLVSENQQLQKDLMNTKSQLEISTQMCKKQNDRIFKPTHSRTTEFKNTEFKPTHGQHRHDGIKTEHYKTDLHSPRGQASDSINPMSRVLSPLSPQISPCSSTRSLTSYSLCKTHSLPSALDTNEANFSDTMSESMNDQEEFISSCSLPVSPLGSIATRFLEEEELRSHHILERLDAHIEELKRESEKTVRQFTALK

Variant	effect of a mutation on the interaction
T77A	with no effect
R159S	with no effect

Variants of: B6
Details: with naa10_human NAA10, P41227

Variant	effect of a mutation on the interaction
E222K	with no effect
